From patent publication US20260130970A1, “PRESERVED GIP/GLP AGONIST COMPOSITIONS” (ELI LILLY AND COMPANY, priority 2022, published 2026)

Experiment: Light scattering of tirzepatide samples (apparent weight-average molecular weight, self-association)
Format: physicochemical
Conditions: Mounjaro™ matrix (5 mM phosphate buffer, 140 mM NaCl, pH=7.0), 5 mg/mL to 30 mg/mL
Method: Tirzepatide formulations were prepared for light scattering measurements, with compositions detailed in Tables 1.a and 1.b. Light scattering data were collected using an ALV-CGS3 goniometer-based light scattering instrument (ALV-GmbH, Langen, Germany), which is a self-contained system with 22 mW 633 nm HeNe laser. Samples were filtered into disposable glass tubes using appropriate filters. Corresponding drug product placebos were used as scattering blanks. A single 15- or 30-second-long acquisition at 90-degree scattering angle was collected per sample, using the dynamic light scattering (DLS) mode. The resulting DLS auto-correlation functions were analyzed using intensity-weighted regularized size distributions, and shown to be monomodal before proceeding. The time-averaged scattering intensity values of the samples, placebos and toluene were used to calculate the excess Rayleigh ratios.
Apparent weight-average molecular weight (WAMW) values were calculated using formula (1):
[formula] • where K is an optical constant, c is the peptide mass concentration, and R is the excess Rayleigh ratio. A refractive index increment (dn/dc) of 0.185 mL/g was assumed.
To study the effect of preservatives, m-cresol, phenol or benzyl alcohol at selected concentrations were added to a standard Mounjaro™ composition. […]

## tirzepatide
  self-association of tirzepatide: monomer-trimer-hexamer equilibrium
